According to publication PMC9002140 (Computational and Structural Biotechnology Journal, 2022):
Where a chain is given by its changes, count along the chain named. Names may count otherwise.

T1: thermolysin from B. thermoproteolyticus Rokko (Bacillus thermoproteolyticus Rokko, UniProt P00800 233-548)
T1 sequence (looked up): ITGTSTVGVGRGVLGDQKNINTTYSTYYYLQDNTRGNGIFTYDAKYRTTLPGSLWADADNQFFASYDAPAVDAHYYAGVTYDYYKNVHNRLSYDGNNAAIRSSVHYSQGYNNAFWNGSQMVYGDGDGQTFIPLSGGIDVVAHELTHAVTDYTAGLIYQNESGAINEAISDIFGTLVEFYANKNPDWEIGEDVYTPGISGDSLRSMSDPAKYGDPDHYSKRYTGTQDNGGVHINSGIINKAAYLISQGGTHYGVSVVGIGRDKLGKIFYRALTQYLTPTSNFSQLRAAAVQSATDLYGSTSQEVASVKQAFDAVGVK

T2: aureolysin isoform I, mature catalytic domain (A209–E509) (Staphylococcus aureus (strain V8-BC10), UniProt P81177 209-509)
T2 sequence (looked up): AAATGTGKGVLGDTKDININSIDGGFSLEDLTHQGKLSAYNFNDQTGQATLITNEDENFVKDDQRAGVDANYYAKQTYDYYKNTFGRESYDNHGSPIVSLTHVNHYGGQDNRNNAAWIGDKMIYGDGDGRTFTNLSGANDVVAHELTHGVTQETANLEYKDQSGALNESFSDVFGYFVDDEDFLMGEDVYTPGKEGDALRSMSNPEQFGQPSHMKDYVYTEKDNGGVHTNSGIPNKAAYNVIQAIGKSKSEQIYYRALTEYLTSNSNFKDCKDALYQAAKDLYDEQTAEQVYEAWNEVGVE

B1: R58E-IMPI (natural protein, Galleria mellonella)
chain: GMSIVLICNGGHEYYECGGACDNVCADLHIQNKTNCPIINIECNDKCYCEDGYARDVNGKCIPIKDCPKIRS
B2: I57F-IMPI (natural protein, Galleria mellonella)
chain: B1 chain with I41F, E42R

Assays:
[1] = biological target: T1, thermolysin from B. thermoproteolyticus …; assay: cell-based or functional assay
[2] = biological target: T2, aureolysin isoform I, mature catalytic …; assay: enzyme inhibition assay

Binder | inhibition of thermolysin, against the wild type [1] | Ki [2]
B1 | ~200 fold | 
B2 |  | 346 nM
